Assay results: the nanobody polyreactivity screen of Harvey et al. (2022)

Assay: yeast display, Sf9 membrane polyspecificity reagent, FACS + sequencing; frameworks hold sequencing errors
Method in brief: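 After 36–48 hours of galactose induction, yeast (Saccharomyces cerevisiae BJ5465) displaying a synthetic nanobody library were stained at 4 °C for 1 hour with 10% biotinylated, detergent-solubilized Sf9 membrane reagent. Streptavidin microbeads enriched the stained cells before FACS sorting into low and high (top ~1%) gates on anti-HA and streptavidin fluorescence. Each clone's polyreactivity label reflects its gate of origin.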

Sequence	polyreactivity (PSR sort gate)
QVQLEESGGGLVQAGGSLRLSCAASGFIFPYYAMGWYRQAHGQERELVAAISRSGGRTYYADSVKGRFTISRDNAKNTVYLQMNSLKPEDTAVYYCNAPFQSEPFDYWGQGTQVTVSS	high polyreactivity
QVQLVESGGGLVQAGGSLRLSCAASGSTFYYYSMGWYRQAPGKERELVASISDDGSTNYADSVKGRFTISRDNAKNTVYLQMNSLKPEDTAVYYCAAVWWHQFGSAWYQMGYWGQGTQVTVSS	low polyreactivity
QVQLVESGGGLVQAGGSLRLSCAASGSIFYSYAMGWYRQAPGKERELVADITITGSTYYADSVKGRFTISRDNAKNTVYLQMNSLKPDDTAVYYCNAVLAPGGYDYWGQGTQVTVSS	low polyreactivity
QVQLVESGGGLVQAGGSLRLSCSASGRIFFSYAMGWYRQAPGKERELVAAISRDGGTPYYADSVKGRFTISRDNAKNTVSLLLNSLKPEDTAVYYCADDWYLRRRIYGYWGQGTEVTVSS	high polyreactivity
QVQLQESGGGLVQAGGILRLSCAASGPISRRSTMGWYRQAPGKERELVTAITRGTNTNYADSVKGRFTISRDNAKNTEYLQMNSLKPEDTAVYYCAAYGVLKPYRGDAVFHRYWGQGTQVTVSS	low polyreactivity
QVQHVDSGGGLDHAGGSLRLSCAASGSIFAGYAMGWYRQAPAKERELDAAISSTGGRTYYADSVKGRFTISRDNAKTSVYLQMNSLKPEDTAVYYCGGAYYASYYYWGQGTQVTVSS	high polyreactivity
QVQLVESGGGLVQAGGSLRLSCAASGRTYRFNAMGWYRQAPGKERELVAAISKSGGSTYYADSVKGRFTISRDNAKNTVYLQMNSLKPEDTAVYYCAAQTYLYEYKYWGQGTQVTVSS	high polyreactivity
QVQLVESGGGLVQAGGSLRLSCAASGGTFPRNAMGWYRQAPGKERELVAAINQSGGRTYYADSVKGRFTISRDNAKNTVYLQLNSLKPEDTAVYYCAARVTYYRTYRGRQYGYWGQGTQVTVSS	high polyreactivity
QVQLVESGGGLVQAGGSLRLSCAASGRIFPTYAMGWYRQAPGKERELVASITSGVDTYYADSVKGRFTISRDNAKNTVYLQMNSLKPEDTAVYYCAARFFVWWKYDYWGQGTQVTVSS	low polyreactivity
QVQLVESGGGLVQAGGSLRLSCAASGSTLYAYAMGWYRQAPGKERELVAAIRTGGSTYYADSVKGRFTISRDNAKNTVYLQMNSLKPEDTAVYYCAADHGYQYGYWGQGTQVTVSS	low polyreactivity
QVQLVESGGGLVQAGGSLRLSCAASGRIFKTYAMGWYRQAPGKERELDAAITASGGRTYYADSVKGRFTISRDNAKNTVYLQMNSLKPEDTAVYYCAADSGNEYDYWGQGTQVTVSS	high polyreactivity
QVQLVESGGGLVQAGGSLRLSCAASGHIFVNKAMGWYRQAPGKEREFVAAITSNGARTYYADSVKGRFTISRDNAKNTVYLQMNSLKPEDTAVYYCAKRFARRSQRYDYWGQGTQVTVSS	high polyreactivity
QVQLVESGGGLVQAGGSLRLSCAASGRIFYGNAMGWYRQAPGKEREWVAAISSGTSTNYADSVKGRFTISRDNAKNTVFLQMNSLKPEDTAVYYCADGSYSRYLYSLYFDFDYWGQGTQVTVSS	low polyreactivity
QVQLVESGGGLVQAGGSLRLSCAASGSTFRWNAMGWYRQAPGKERELVAAISNGGSTNYADSVKGRFTISRDNAKNTVYLQMNSLIPEDTAVYYCATDGWYGQHYYDYDFDYYYWGQGTQVTVSS	low polyreactivity
QVQLVDSGGGLVQAGGSLRLSCAASGLTFSTYAKGWYRQAPGTERELVAVIRRTGSTYYADSVKGRFTISRDNAMNTVYLHMNGLKPEDNAVYYFATARRHVSGYDFWGQCTQVTVSS	high polyreactivity
QVQLVESGGGLVQAGGSLSLSCAASGFTFSRYAMGWYRQAPGKERELVAAISDDGGSTYYADSVKGRFTISRDNAKNTVYLQMNSLKPEDTAVYYCAARFYWSYGYWGQGTQVTVSS	high polyreactivity
QDQLVQSRGGLVQAGGSLRISSAASGGTYFGYAMGWKRQAPGKERELVAAIRWSDGRTYYADSVKGRFTISRDNAKYTVYLQMNSLNPEDTAVYYCNADDARLFDYWGQGTQVTVSS	low polyreactivity
QVQLVESGGGLVQAGGSLRLSCAASGRTFQSNGMGWYRQAPGKERELVAAITWSSGTTYYADSVKGRFTISRDNAKNTVYLQMNSLKPEDTAVYYCAADWGHWNSLFYSGFGYWGQGTQVTVSS	low polyreactivity
QVQLVESGGGLVQAGGSLRLSCAPSGRISFRYAMGWYRQAPGKERELVAAINRGGITNYADSVKGRFTISRDNAKNTVYLQMNSLKPEDTADYYCAAEGFYDYYNGFDYSGQGTQVTVSS	high polyreactivity
QVQLVESGGGLVQAGGSLRLSGAASGSILWSYALGCYIQAPGKERELVAAIRSGGSTYYADSVKGRFTISRDNAKNTVYFQMNSLKPEDTAVLYCNATYAPLFEYDYWGQGTQVTVSS	low polyreactivity
QVQLVESGGCLVQAGGSLRLSCAASGLTFRYYAMGWYRQAPGKERELVAAITASVGSTYYADSVKGRFTISRDNAKNTVYLQMNSLKPEDTAVYYCAADSEQDNLRYYRWVWYDYWGQGTQVTVSS	low polyreactivity
QVQLVESGGGLVQAGGSLRLSSAASGSTFFSNAMGWYRQAPGKERELVATIRFGGGSTYADSVKGRFTISRDNAKNTVYLQMNSLKPEDTAVYYCAADDSDKRYTRSWYGYWGQGTQVAVSS	low polyreactivity

Sequence	polyreactivity (PSR sort gate)
QVQLVESGGGLVQAGGSLRLSCSASGIIFYFYAMGWYRQAPGKERELVAAISDDGVSTDYADSVKGRFTISRDNAKNTVYLQMNSLKPEDTAVFYCNARYSGYLRLDYWGQGTQVTVSS	low polyreactivity
QVQLVESGGGLVQAGGSLRLSCAASGSTFRRYAMGWYRQAPGKERELVAGISYSGGRTYYADSVKGRFTISRDNAKNTVYLQMNSLKPEDTAVYYCAAKSFPSVRHHENYYWGQGTQVTVSS	high polyreactivity
QVQLVESGGGLVQAGGSLRLSSAASGSNFSRNTMGWYRQAPGKERELVAAITRGGSTDYADSVKGRFTISRDNAKNTVDLQMNSRKPEDTAVYYCAKKNPGWGKFDYWGQGTQVTVSS	low polyreactivity
QVQLVESGGGLVQAGGSLRLSCAASGSTFEVNAMGWYRQAPGKERELVATITRSGGSTYYADSVKGRFTISRDNAKNTVYLQMNSLKPEDTAVYYCNAMWELKWGQGTQVTVSS	low polyreactivity
QVQLQESGGGLVQAGGSLRLSCAASGTISVHASMGWYRQAPGKERELVAGITDGANTYYADSVKGRFTISRDNSKNTVYLQMNSLKPEVTAVYYCAAYYGTEVHFTYWGLGTQVTVSS	low polyreactivity
QVQLVESGGGLVQAGGSLRLSCAASGSTLPRYAMGWYRQAPGKEREFVAAMTWRGGSTYYADSVKGRFTISRDNAKNTVYLQMNSLKPEDTAVYYCNTHRNGGSHRRYNYWGQGTQVTVSS	high polyreactivity
QVQHVESGGGLVQAGGSLRLTCAATGSTFRDNAMRWYRQAPGKERELVAAIRIGGDGTYYADSVKGRFTISRDNAKNTVYLQMNSLKPEDTAVYYCAVDTEKGWRMYYWGQGTQVTVSS	low polyreactivity
QDQLVESGGGLGQAGGSLRLSCAASGSNFRPNAMGWYRQAPGKEMELVASITRNGGSTYYADSVKGRFTISRDNAKNTVYLQMNSLKPEDTAVYYCNAGYYYWGQGTQVTLSS	high polyreactivity
QVQLLESGGGLVQAGGSLRLSCAASGSISVAYAMGWYRQAPGKERELVATIRSGDSTYYADSVKGRFTISRDNAKNTVYLQMNSLKPEDTAVYYCNADATDSYPEKDEHDSWGQGTQVTVSS	low polyreactivity
QVQLVESGGGLVQAGGSLRLSCAASGSIFNGYAMGWYRQAPGKERELVADIRSGGSTYYADSVKGRFTISRDNAKYTVYLQMNSLKPEDTAVYYCAADTITDGYDYWGQGTQVTVSS	low polyreactivity
QVQLVESGGVLVQAGGSLPLSCAASGSIFGSYAMGWSRQAPGKERELVAAIRWSGGSTRYADSVKGRFTISRDIAKNRVYLHMNSLKPEDTAVYYCAAVWRYLGYTSMDYWGQGTQVTVSS	low polyreactivity
QVQLVESGGGLVQAGGSLRLSCAASGSTFSGNVMGWYRQAPGKERALVAAIRRSSGSTYYADSVKGRFTISRDNAKNTVYLQMNSLKPEDTAVYYCATDVTKIRQGDYYYWGQGTQVTVSS	high polyreactivity
QVQLVESRGGLVQAGGRLRLSCAASGIIFPRNAMGWYRQAPGKERELVAAITNTGSTKYADSVKGRFTISRDNEKNTVYLHMNSLKPEDTAVYFCAKELCSVPSPSLYDYWGQGTQVTVSS	low polyreactivity
QVQLVESGGGLVQAGGSLRLSCAASGSTFGYNAMGWYRQAPGKERELVAAITYRGSTYYADSVKGRFTISRDNAKNTVYLQMNSLKPEDTAVYYCATQGARYYHTYGYWGQGTQVTVSS	low polyreactivity
QVQLVESGGGLVQAGGSLRLSCAASGSTFFHYVMGWYRQAPGKERELVAAIRWSGGRTRYADSVKGRFTISRDNAKNTVYLQMNSLKPEDTAVYYCAAYRLSKPFYKYDYWGQGTQVTVSS	high polyreactivity
QVQLVESGGGLVQAGGSLRLSCAASGSIFPDYAMGWYRTAPGKERELVAAISWDGGRTYYADSVKGRFTISRDNAKNTVYLQMNSLKPEDTAVYYCYWYDYWGQGTQVTVSS	high polyreactivity
QVHLVESGGGLVQAGGSLRLSCAASGFIFWENGMGWYRQAPGKERELVAAISSGGGRTYYADSVKGLFTISRDNAKNTVYLQMNSLKPEDTAFYYCNRARYYREFDYWGQGTQVTVSS	high polyreactivity
QVQLVESGGGLVQAGGSLRLSCAASGRTFQLYAMGWYRQAPGKERDLVAAISARGGSTYYADSVKGRFTISRDNAKNTVYLQMNSLKPEDTAVYYCNADYNVVLSRVIYARGYWGQGTQVTVSS	high polyreactivity
QVQLVESGGGLVQAGGSLRISCAASGHIFFYYTMGWYRPAPGKERELVAGITIGGSTNYADSVKGRFTISRDNAKNTVSLQMNSLKPEDTAVYYCNVVKYVYIYSYWEYYYWGQGTQVTVSS	low polyreactivity
QVQLEESGGGLVQAGGSLRLSCAASGFIFAQYAMGWYRKAPRKDRELVAAISWSGGSTYYADSVKGRFTISRDNAKNTVYLQMNSLKPEDTAVYYCAALFRNKSRYRYGYWGQGTQVTVSS	high polyreactivity
QVQLVESGGGLVQAGGSLRLSCAASGRISVFNAMGWYRHAPGKERELVAAITSGGSTNYADSVKGRFTISRDNAKNTVYLQMNSLKPEDTAVYYCNADVYHSHEPHYDYWGQGTQVTVSS	low polyreactivity
